# According to the RNAGym collection of RNA variant scans (doi:10.7554/elife.90254):
# B1: OR4K15 (parent)
# chain: GUUAACGGUCAUAGGCCAUGGAAACUAGGAGCACCAUUUCGCUGCCAGUGAAGAAAUGAACAAAGAAAAUCUGGGCCAGGCAGGCAUCAAAAGAAAUAGUCUUGCGCUCAACCAGAAAGUCUGUAAUCAUUUUAAGGGUA
# Variants of: B1
# Assay: self-cleavage, relative activity (ratio to wild type); higher = more cleavage; in vitro, sequencing; the parent is a self-cleaving ribozyme
row,Variant,self-cleavage
1,G8A A69G,1.29
2,A118U,0.61
3,A52U A66U,1.48
4,A56G G75C,0.19
5,A91C A114U,0.05
6,G79A A98G,0.03
7,U49A A82U,0.18
8,U26C U70A,0.63
9,A51U A68G,1.24
10,A62U G73U,0.17
11,C25U U72C,0.4
12,U87C A116G,0.55
13,G53A U102A,0.68
14,U9C C61U,2.27
15,A11U A62C,0.99
16,U102C A135G,1.6
17,A18U A89G,1.59
18,A91G,0.97
19,U43C A47U,0.96
20,A55G A129C,0.72
21,A33G U49C,0.5
22,A59U A78U,0.31
23,A30G A92U,0.71
24,G14A A64G,1.06

row,Variant,self-cleavage
1,A47C U131C,0.89
2,A60G A118U,0.79
3,G80C U132A,0.1
4,A22G A82G,0.68
5,U37A G137A,2.24
6,A36U A55U,0.98
7,A68G C112U,0.02
8,A11G G79A,0.16
9,G93A A126G,2.16
10,U72C U131G,0.28
11,U26A A78G,0.17
12,A92G A98G,0.74
13,A110G G123A,0.29
14,A22G A69G,1.07
15,U43C U100G,1.75
16,C105A U131C,0.05
17,G44A G74A,0.17
18,A11G U70G,0.6
19,U38C G84A,2.05
20,A22U A125G,0.52
21,G1A U108C,0.05
22,A24G U70C,0.53
23,U57C A91G,0.84
24,U57C A125G,0.29

row,Variant,self-cleavage
1,A22G A62G,1.12
2,G14A A111G,0.01
3,G41A A129G,0.61
4,A27G A116U,0.05
5,A47G A117G,1.32
6,C16U A22C,1.53
7,A5C U87C,0.73
8,A30U A66G,1.68
9,A56G U131C,1.47
10,A117U A129G,0.47
11,U72A A129U,0.23
12,A51C A110U,0.82
13,A23G A52G,1.13
14,U2C G74U,0.08
15,G15A A51G,1.52
16,U37G A90G,0.38
17,A91G G93A,1.82
18,A5U A129G,0.79
19,A55G G84A,2.46
20,A51U A111G,0.04
21,U38C A129G,1.31
22,A69G A78U,0.33
23,A90U U124G,1.66
24,U39G A90G,1.08

row,Variant,self-cleavage
1,A13G A86C,0.5
2,C46U G84A,1.72
3,A62G U87C,0.88
4,U49A U103G,0.01
5,U12A U108C,0.04
6,A11U U43C,1.44
7,U3C U120A,1.72
8,A64U U108C,0.02
9,C88U U108C,0.01
10,A89G A92U,1.57
11,G115A U131C,0.04
12,C112U,0.02
13,U72C A86U,0.14
14,C71U A114U,0.06
15,A11G G136U,1.19
16,A24G A51U,1.19
17,A54U A89C,1.5
18,A23G A140U,1.15
19,C25U A94U,1.62
20,G138A,0.93
21,G1A A82G,1.18
22,A24C U38C,1.26
23,G8A A27G,1.84
24,U122G A129G,1.33

row,Variant,self-cleavage
1,A62G A63U,1.61
2,A78G A118U,0.21
3,A90U U133C,1.61
4,A51G A134G,1.55
5,A64G U127C,0.86
6,A86G A125G,0.45
7,A33U U139C,1.86
8,A22G C112A,0.05
9,A114G U139C,0.32
10,A24G A114U,0.19
11,A18U A51U,1.24
12,A23G A59U,1
13,A5G A117G,1.51
14,A67U A114G,0.66
15,U39A A135G,1.75
16,G79A U120G,0.11
17,A33G A116C,0.14
18,C85A A140G,1.84
19,A59U U124C,0.69
20,A23G A94U,1.54
21,G106A A125U,0.05
22,A64U U103A,1.08
23,A56G U102G,0.89
24,U2G U102C,0.94

row,Variant,self-cleavage
1,U19C U139C,1.58
2,A67G G106A,0.02
3,A22G A114G,0.69
4,A52U U97C,0.96
5,A55G A67G,1.21
6,A117U U127C,0.61
7,U19C G50A,1.38
8,U2C U100A,0.48
9,A68G C77A,0.54
10,A24G A116G,0.61
11,C25U A33G,1.12
12,A5G C88A,0.8
13,A86C U130C,0.29
14,U49C A129U,0.92
15,A59U G79A,0.14
16,U3C A98G,0.6
17,U39A A63G,1.95
18,A47U A114G,0.21
19,U57A A62U,2.46
20,U43C C88U,1.59
21,A23U A89G,0.86
22,G15A A64U,1.37
23,U57C G74U,0.39
24,A22G U70A,1.28

row,Variant,self-cleavage
1,A24U U108A,0.07
2,A111G U120A,0
3,A134G,1.15
4,A82G G99U,0.07
5,A62U U139C,1.82
6,U2A U43G,1.11
7,U49G U87C,1.48
8,A78U A86G,0.11
9,A60U U108C,0.01
10,A55U A117U,0.72
11,A59U A90C,1.63
12,G29U A118G,0.78
13,A55G A59G,1.17
14,U3C G84C,0.37
15,C32U A118G,1.44
16,A51G A116U,0.05
17,G41C A98G,0.57
18,A129G U130C,1.73
19,A30U A47G,0.97
20,U70A U127A,2.27
21,A96G U103C,1.27
22,A52U A55G,1.07
23,A11G A33C,1.98
24,A66U C85U,1.09

row,Variant,self-cleavage
1,C107G U108A,0.01
2,U127C U130C,0.69
3,G75A A114G,0.04
4,U9A A126G,0.57
5,C81A A114U,0.03
6,A96G A125G,0.69
7,U9C G115C,0.11
8,A23U A95G,1.75
9,U70C A78G,0.26
10,A11G G14A,1.31
11,A24G A89G,0.78
12,A11U U70C,0.67
13,G80A C81A,0.11
14,A36G C112U,0.03
15,G41C A135G,1.81
16,A69U U122A,2.21
17,A23U U122C,1
18,A11U G84A,2.42
19,A67G A140U,1.93
20,U43C A62G,1.29
21,A13U U97C,1.4
22,A69U A82G,0.63
23,A51G A55U,1.2
24,A24G A126U,0.98

row,Variant,self-cleavage
1,A23U A56G,1.29
2,G50A C71U,0.42
3,A90U U108C,0.01
4,C45U U70C,0.82
5,A33C A59G,1.39
6,A59G C113U,0.03
7,A78C G79A,0.16
8,A4G A64C,0.79
9,A96G A110C,0.15
10,C40U A78G,0.44
11,A111G U131C,0.01
12,A62G A96G,1.53
13,A23G A98G,0.23
14,A64C C76U,0.26
15,A126C U132C,0.5
16,A36C A86G,1.24
17,C40A A135G,1.29
18,C109U U133C,0.37
19,U2C C112U,0
20,U43C U132C,1.27
21,A91G A114C,0.02
22,U2C A89U,1.7
23,A68G A129U,1.42
24,A66G A82G,0.26

row,Variant,self-cleavage
1,G15A U103C,0.82
2,A118G A129G,0.29
3,U43A A94C,1.01
4,U39C C81U,0.63
5,A30U U108C,0.02
6,C109A U127C,0.17
7,A86C U139C,0.51
8,U49C U100C,2
9,U9C U38C,1.7
10,G53A G75A,0.09
11,C85U A96U,1.58
12,A114G U122A,0.39
13,A62C G83A,2.18
14,A78U A90G,0.32
15,A22U G74U,0.27
16,A23G A82U,0.2
17,A5G G58A,1.07
18,G29U C88U,2.55
19,U37C U127C,1.08
20,A86U U102C,2.39
21,A114C U122C,0.01
22,U87A A96G,2.29
23,U49C U72C,0.3
24,A51C U102A,0.84

row,Variant,self-cleavage
1,C40U A62C,1.11
2,U87C G115U,0.29
3,A47G A67U,1.48
4,A51U U103C,1.35
5,A86G U108A,0.01
6,A56G A62G,1.92
7,U97A,1.75
8,U39C A126G,1.18
9,A24G U122C,0.84
10,A51G A126C,0.91
11,A63U A64G,0.94
12,A69G U130G,1.3
13,U2C G7A,1.22
14,A90U A134U,1.96
15,A36C A60G,0.49
16,A52G U70A,0.45
17,C46U A47G,0.79
18,A92G A117G,1.47
19,A54U U132C,2.02
20,A98G A116G,0.12
21,A64C A95G,2.58
22,U9C U37C,1.57
23,A18U U37C,0.8
24,A90G U124A,0.47

row,Variant,self-cleavage
1,U12C A47U,0.93
2,C35G,1.34
3,C71U C105U,0.07
4,A62G A140G,1.36
5,U102A A140U,1.14
6,G73A A78G,0.21
7,A24C A94G,1.63
8,A92U U122C,1.3
9,A51G A96G,1.47
10,A23U A68G,1.45
11,U43C A117G,1.75
12,U70C U87A,0.61
13,A4G U49C,0.82
14,A11G U43A,1.12
15,A56C A66G,0.72
16,A33G A51C,0.52
17,A30G G31C,2
18,A4G A60G,1.27
19,A33G G93A,1.14
20,A69G A110G,0.14
21,A64U U102C,2.23
22,G50A U100G,0.96
23,G74A A116G,0.12
24,A13C U120C,1.78

row,Variant,self-cleavage
1,G1A A4G,0.54
2,A60G C81U,0.21
3,A95G C101U,1.28
4,A30C G75C,0.12
5,U2A A78C,0.66
6,A56G A82G,0.56
7,A68G C105U,0.14
8,U70A A91G,1.22
9,A114U U127A,0.03
10,A78U,0.36
11,A27G A82C,0.1
12,A82C A86U,0.13
13,A52G A86G,1.41
14,A5G A68U,0.85
15,U19A A78U,0.35
16,U37C U97C,2.06
17,U103A A126G,0.34
18,A24U A55U,0.93
19,U19C A47G,0.41
20,U9C U70C,0.77
21,G44U U70A,0
22,A52G U72A,0.4
23,A24G A125G,0.43
24,U49A U120C,0.84

row,Variant,self-cleavage
1,U102A A116C,0.21
2,A51U A94C,0.55
3,G83A A94G,1.79
4,A5G A51G,1.2
5,U43A G65A,2.07
6,A86G A117G,1.45
7,A4G A66G,0.53
8,C40A,1.83
9,U2A A86G,1.46
10,A54U A129G,0.88
11,C105A A134G,0.05
12,U100C A140U,2.24
13,C35U A95C,0.87
14,U124C A140U,1.14
15,A59G A62C,0.43
16,A27G C71A,0.66
17,A98G A114U,0.02
18,U43C C113U,0.04
19,A5G G15A,1.02
20,A91G U124C,0.62
21,A62G G136A,2.2
22,G14U A52U,1.71
